The source of these data is patent US20180273635A1 (Zymeworks, published 2018).

Changes are numbered by the printed parent chain. Names may count otherwise.

B1: variant 12498 (antibody, human IgG1, kappa)
heavy: EVQLVESGGGLVQPGGSLRLSCAASGFTFTDYTMDWVRQAPGKGLEWVADVNPNSGGSIYNKRFKGRFTLSVDRSKNTLYLQMNSLRAEDTAVYYCARNLGPSFYFDYWGQGTLVTVSSASTKGPSVFPLAPSSKSTSGGTAALGCLVKDYFPEPVTVSWNSGALTSGVHTFPAVLQSSGLYSLSSVVTVPSSSLGTQTYICNVNHKPSNTKVDKKVEPKSCDKTHTCPPCPAPELLGGPSVFLFPPKPKDTLMISRTPEVTCVVVDVSHEDPEVKFNWYVDGVEVHNAKTKPREEQYNSTYRVVSVLTVLHQDWLNGKEYKCKVSNKALPAPIEKTISKAKGQPREPQVYVYPPSRDELTKNQVSLTCLVKGFYPSDIAVEWESNGQPENNYKTTPPVLDSDGSFALVSKLTVDKSRWQQGNVFSCSVMHEALHNHYTQKSLSLSPG
light: not shown
chain: not shown
notes: OA pertuzumab variant, HC Q61K (Kabat); also called v12498
B2: variant 12543 (antibody, human IgG1, kappa)
heavy: B1 heavy with K62Q, F64L
light: not shown
chain: not shown
notes: OA pertuzumab variant, HC F63L (Kabat); also called v12543
B3: variant 12545 (antibody, human IgG1, kappa)
heavy: B1 heavy with K62R
light: not shown
chain: not shown
notes: OA pertuzumab variant, HC Q61R, LC Y94K (Kabat); also called v12545
B4: variant 12500 (antibody, human IgG1, kappa)
heavy: B1 heavy with K62Q, S75Y
light: not shown
chain: not shown
notes: OA pertuzumab variant, HC S74Y (Kabat); also called v12500
B5: variant 12537 (antibody, human IgG1, kappa)
heavy: B1 heavy with K62Q
light: not shown
chain: not shown
notes: OA pertuzumab variant, LC Y96M (Kabat); also called v12537
B6: variant 14067 (antibody, human IgG1, kappa)
heavy: B1 heavy with K62Q, K76Y
light: not shown
chain: not shown
notes: OA pertuzumab variant, HC K75Y (Kabat); also called v14067
B7: variant 12526 (antibody, human IgG1, kappa)
heavy: B1 heavy with G57M, I59Y, K62Q
light: not shown
chain: not shown
notes: also called v12526
B8: variant 12515 (antibody, human IgG1, kappa)
heavy: B1 heavy with K62Q
light: DIQMTQSPSSLSASVGDRVTITCKASQDVSIGVAWYQQKPGKAPKLLIYSASYRYWGVPSRFSGSGSGTDFTLTISSLQPEDFATYYCQQYYIYPYTFGQGTKVEIKRTVAAPSVFIFPPSDEQLKSGTASVVCLLNNFYPREAKVQWKVDNALQSGNSQESVTEQDSKDSTYSLSSTLTLSKADYEKHKVYACEVTHQGLSSPVTKSFNRGEC
chain: not shown
notes: OA pertuzumab variant, LC T56W (Kabat); also called v12515
B9: variant 12539 (antibody, human IgG1, kappa)
heavy: B1 heavy with K62Q
light: B8 light with W56T, Y91T
chain: not shown
notes: OA pertuzumab variant, LC Y91T (Kabat); also called v12539
B10: variant 14064 (antibody, human IgG1, kappa)
heavy: B1 heavy with K62Q, K76A
light: not shown
chain: not shown
notes: OA pertuzumab variant, HC K75A (Kabat); also called v14064
B11: variant 12518 (antibody, human IgG1, kappa)
heavy: B1 heavy with T30R, G57R, K62Q
light: not shown
chain: not shown
notes: also called v12518
B12: variant 12499 (antibody, human IgG1, kappa)
heavy: B1 heavy with K62Q, S75D
light: not shown
chain: not shown
notes: OA pertuzumab variant, HC S74D (Kabat); also called v12499
B13: variant 14066 (antibody, human IgG1, kappa)
heavy: B1 heavy with K62Q, K76V
light: not shown
chain: not shown
notes: OA pertuzumab variant, HC K75V (Kabat); also called v14066
B14: variant 14065 (antibody, human IgG1, kappa)
heavy: B1 heavy with K62Q, K76I
light: not shown
chain: not shown
notes: OA pertuzumab variant, HC K75I (Kabat); also called v14065
B15: variant 12501 (antibody, human IgG1, kappa)
heavy: B1 heavy with K62Q, S75E
light: not shown
chain: not shown
notes: OA pertuzumab variant, HC S74E (Kabat); also called v12501
B16: variant 12542 (antibody, human IgG1, kappa)
heavy: B1 heavy with K62Q, F64G
light: not shown
chain: not shown
notes: OA pertuzumab variant, HC F63G (Kabat); also called v12542
B17: variant 12546 (antibody, human IgG1, kappa)
heavy: B1 heavy with K62R
light: B8 light with D1N, W56T
chain: not shown
notes: OA pertuzumab variant, HC Q61R, LC D1N (Kabat); also called v12546
B18: variant 12541 (antibody, human IgG1, kappa)
heavy: B1 heavy with K62Q
light: not shown
chain: not shown
notes: OA pertuzumab variant, LC Y96L (Kabat); also called v12541
B19: variant 12535 (antibody, human IgG1, kappa)
heavy: B1 heavy with K62Q
light: B8 light with W56T, Y91N
chain: not shown
notes: OA pertuzumab variant, LC Y91N (Kabat); also called v12535
B20: Variant 14038 (antibody, human IgG1, kappa)
heavy: B1 heavy with T30Q, K62Q, K76E
light: not shown
chain: not shown
notes: OA (one-armed) format; clones 8782, 1811, 4372; also called v14038
B21: Variant 14029 (antibody, human IgG1, kappa)
heavy: B1 heavy with G57Y, K62Q, K76W
light: not shown
chain: not shown
notes: OA (one-armed) format; clones 8777, 1811, 4372; also called v14029
B22: Variant 14035 (antibody, human IgG1, kappa)
heavy: B1 heavy with T30Q, K62Q
light: not shown
chain: not shown
notes: OA (one-armed) format; clones 7815, 7917, 4372; also called v14035
B23: Variant 14028 (antibody, human IgG1, kappa)
heavy: B1 heavy with T30Y, K62Q, K76W
light: not shown
chain: not shown
notes: OA (one-armed) format; clones 8776, 1811, 4372; also called v14028
B24: Variant 14033 (antibody, human IgG1, kappa)
heavy: B1 heavy with K62Q, S75W, K76E
light: not shown
chain: not shown
notes: OA (one-armed) format; clones 8779, 1811, 4372; also called v14033
B25: Variant 14030 (antibody, human IgG1, kappa)
heavy: B1 heavy with K62Q, S75W
light: not shown
chain: not shown
notes: OA (one-armed) format; clones 7840, 7919, 4372; also called v14030
B26: Variant 14027 (antibody, human IgG1, kappa)
heavy: B1 heavy with K62Q, K76W
light: not shown
chain: not shown
notes: OA (one-armed) format; clones 7844, 7917, 4372; also called v14027
B27: Variant 14026 (antibody, human IgG1, kappa)
heavy: B1 heavy with K62Q, K76W, S103W
light: not shown
chain: not shown
notes: OA (one-armed) format; clones 8774, 1811, 4372; also called v14026
B28: Variant 14031 (antibody, human IgG1, kappa)
heavy: B1 heavy with T30Q, K62Q, S75W
light: not shown
chain: not shown
notes: OA (one-armed) format; clones 8778, 1811, 4372; also called v14031
B29: Variant 14037 (antibody, human IgG1, kappa)
heavy: B1 heavy with K62Q, K76E
light: not shown
chain: not shown
notes: OA (one-armed) format; clones 7843, 7919, 4372; also called v14037
B30: Variant 14034 (antibody, human IgG1, kappa)
heavy: B1 heavy with K62Q
light: not shown
chain: not shown
notes: OA (one-armed) format; clones 3057, 8781, 4372; also called v14034

In the first assay the target is T1, Recombinant human HER2 (human, UniProt P04626 23-652).
T1 construct: extracellular domain; analyte of the SPR assays; also called HER2 ECD; ECD2 of HER2
Briefly: SPR, pre-SEC; ratio to WT v10013.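 Also: SPR on Biacore T200 at 25 °C, constructs captured via anti-human Fc on CM5 chip, HER2 ECD as analyte, 1:1 Langmuir global fit, after protein A purification.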
Procedure: (§1) The affinity towards HER2 ECD of the samples was measured by SPR on a Biacore T200 as follows. Between 2000 and 4000 RU of anti-human Fc injected at concentration between 5 and 10 μg/ml was immobilized on a CM5 chip using standard amine coupling. Antigen-binding constructs were captured on the anti-human Fc (injected at concentration at 0.51 microg/mL in PBST, 1 min at 10 microl/min) at response levels ranging from 120-270 RU. […] HER2 dilutions were analyzed in duplicates. Sensograms were fit globally to a 1: 1 Langmuir binding model, using the software provided with the Biacore T200. All experiments were conducted at 25° C.
(§2) The affinity of antigen-binding constructs in OA format was determined by SPR following protein A purification. […] Antigen-binding constructs in FSA format were purified by protein A affinity and SEC prior to assessment of affinity by SPR.
In the case of B1, the “Ka, mut/Ka, WT” value came to 1.

Consider B2, for which the “Ka, mut/Ka, WT” value was determined as 1.

For B3, the “Ka, mut/Ka, WT” value was determined as 0.2.

With B4, the “Ka, mut/Ka, WT” value amounted to 1.

With B5, the “Ka, mut/Ka, WT” value came out at 0.3.

Regarding B6, the “Ka, mut/Ka, WT” value is 18.

With B7, the “Ka, mut/Ka, WT” value came to 0.2.

With B8, the “Ka, mut/Ka, WT” value was determined as 0.8.

With B9, the “Ka, mut/Ka, WT” value was 0.3.

On to B10, for which the “Ka, mut/Ka, WT” value is 1.7.

For the molecule B11, the “Ka, mut/Ka, WT” value came out at 0.9.

As to B12, the “Ka, mut/Ka, WT” value was 0.3.

Consider B13, for which the “Ka, mut/Ka, WT” value worked out at 1.6.

In the case of B14, the “Ka, mut/Ka, WT” value stood at 1.5.

As to B15, the “Ka, mut/Ka, WT” value worked out at 0.2.

For B16, the “Ka, mut/Ka, WT” value was found to be 0.5.

B17: the “Ka, mut/Ka, WT” value is 1.3.

On to B18, for which the “Ka, mut/Ka, WT” value stood at 0.3.

As to B19, the “Ka, mut/Ka, WT” value worked out at 0.8.

The target in another assay is T2, Recombinant human HER2 (human, UniProt P04626 23-652).
T2 construct: extracellular domain; Analyte of the SPR assays; also called HER2 ECD; ECD2 of HER2
Briefly: SPR, 25 C; Ka ratio to WT v10013.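 Also: constructs captured via anti-human Fc on CM5 chip, HER2 ECD as analyte in duplicate dilutions, sensorgrams globally fit to 1:1 Langmuir model on Biacore T200.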 On the technique in general: SPR reads the build-up and loss of mass on a sensor chip optically.
Procedure: as §1
In the case of B20, the “Ka, mut/Ka, WT” value turned out to be 12 fold.

Regarding B21, the “Ka, mut/Ka, WT” value was roughly 81 fold.

In the case of B22, the “Ka, mut/Ka, WT” value is 18 fold.

For the molecule B23, the “Ka, mut/Ka, WT” value was roughly 67 fold.

On to B24, for which the “Ka, mut/Ka, WT” value is 10 fold.

Consider B25, for which the “Ka, mut/Ka, WT” value was found to be 13 fold.

Turning to B26, the “Ka, mut/Ka, WT” value is roughly 164 fold.

On to B27, for which the “Ka, mut/Ka, WT” value was roughly 57 fold.

As to B28, the “Ka, mut/Ka, WT” value is 8 fold.

As for B29, the “Ka, mut/Ka, WT” value was 12 fold.

Turning to B30, the “Ka, mut/Ka, WT” value was found to be 12 fold.

In another assay the target is T2, Recombinant human HER2. Briefly: calculated from the SPR Ka ratio to WT v10013.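 Also: SPR at 25 °C with constructs captured on an anti-human Fc chip and HER2 extracellular domain as analyte, kinetics fitted to a 1:1 Langmuir model.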
Procedure: as §1
As to B20, the ΔΔG is -1.5 kcal/mol.

Consider B21, for which the ΔΔG was -2.6 kcal/mol.

Turning to B22, the ΔΔG is -1.7 kcal/mol.

As for B23, the ΔΔG was -2.5 kcal/mol.

B24: the ΔΔG was -1.4 kcal/mol.

With B25, the ΔΔG is -1.5 kcal/mol.

Consider B26, for which the ΔΔG was -3 kcal/mol.

In the case of B27, the ΔΔG is -2.4 kcal/mol.

B28: the ΔΔG was -1.2 kcal/mol.

Consider B29, for which the ΔΔG was -1.5 kcal/mol.

As to B30, the ΔΔG is -1.4 kcal/mol.

Another assay deals with T1, Recombinant human HER2. Briefly: SPR, variant captured on anti-human Fc, HER2 flowed, 25 C, pre-SEC.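 Also: HER2 extracellular domain binding on Biacore T200, CM5 chip with amine-coupled anti-human Fc, duplicate antigen dilutions, global 1:1 Langmuir fit, measured after protein A purification.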
Procedure: as §1, §2
For orientation: Kd means the equilibrium constant for the complex coming apart. B1: the Kd is 19 nM.

For B2, the Kd came out at 20 nM.

As to B3, the Kd was determined as 81 nM.

Regarding B4, the Kd came out at 20 nM.

Take B5: the Kd stood at 57 nM.

As for B6, the Kd came out at 0.94 nM.

With B7, the Kd was determined as 130 nM.

B8: the Kd is 26 nM.

On to B9, for which the Kd is 75 nM.

B10: the Kd was 9.7 nM.

Take B11: the Kd is 21 nM.

In the case of B12, the Kd was found to be 69 nM.

For the molecule B13, the Kd stood at 10 nM.

As for B14, the Kd stood at 11 nM.

With B15, the Kd was 85 nM.

With B16, the Kd was determined as 40 nM.

Regarding B17, the Kd was found to be 15 nM.

With B18, the Kd was determined as 63 nM.

On to B19, for which the Kd turned out to be 23 nM.

The target of a further assay is T2, Recombinant human HER2. Briefly: SPR, Biacore T200, 25 C; variant captured on anti-human Fc, HER2 flowed.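 Also: HER2 extracellular domain analyte run as duplicate dilutions over amine-coupled anti-Fc on a CM5 chip, rates from global sensorgram fitting with a 1:1 Langmuir model.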
Procedure: as §1
In general, koff refers to a measure of how fast the partners let go of each other. Usually kon stands for the second-order rate constant of association. For the molecule B20, the Kd stood at 1.4 nM, the koff was 6.2e-05 s⁻¹ and the kon is 43000 M⁻¹ s⁻¹.

Consider B21, for which the Kd was roughly 0.21 nM, the koff was roughly 2e-05 s⁻¹ and the kon came to 95000 M⁻¹ s⁻¹.

As for B22, the Kd worked out at 0.91 nM, the koff was 4e-05 s⁻¹ and the kon was 44000 M⁻¹ s⁻¹.

With B23, the Kd was roughly 0.25 nM, the koff was roughly 1.7e-05 s⁻¹ and the on-rate constant (kon) was 68000 M⁻¹ s⁻¹.

Regarding B24, the Kd was 1.7 nM, the koff came out at 9.9e-05 s⁻¹ and the kon was determined as 59000 M⁻¹ s⁻¹.

Consider B25, for which the Kd came to 1.3 nM, the koff was 8e-05 s⁻¹ and the kon worked out at 63000 M⁻¹ s⁻¹.

For the molecule B26, the Kd is roughly 0.1 nM, the koff was roughly 9e-06 s⁻¹ and the kon amounted to 88000 M⁻¹ s⁻¹.

As to B27, the Kd is roughly 0.29 nM, the koff is roughly 2.7e-05 s⁻¹ and the kon stood at 91000 M⁻¹ s⁻¹.

Turning to B28, the Kd was found to be 2 nM, the koff was determined as 9.9e-05 s⁻¹ and the kon is 49000 M⁻¹ s⁻¹.

As to B29, the Kd came to 1.4 nM, the koff is 8.3e-05 s⁻¹ and the kon is 59000 M⁻¹ s⁻¹.

Regarding B30, the Kd came out at 1.5 nM, the koff came out at 8.5e-05 s⁻¹ and the kon is 59000 M⁻¹ s⁻¹.
